According to publication PMC8177707:
Read-outs that look alike come from different tables or passages of the source.

Columns and labels:
Experiment in all cases: cryo-EM structure
[1] = target: full-length wild-type calcium-sensing receptor from Gallus gallus (ggCaSR) (Gallus gallus)
[2] = target: full-length wild-type calcium-sensing receptor from Gallus gallus (ggCaSR) (Gallus gallus); remark: listed apart in the source
[3] = target: full-length wild-type calcium-sensing receptor from Gallus gallus (ggCaSR) (Gallus gallus); remark: listed apart in the source
[4] = target: full-length wild-type calcium-sensing receptor from Gallus gallus (ggCaSR) (Gallus gallus); remark: listed apart in the source

Measured: stoichiometry N

full-length wild-type calcium-sensing receptor from Gallus gallus (ggCaSR)
2: all assays above
